According to US20240124560A1:

Columns and labels:
Assay in all cases: cell-based or functional assay
[1] = target: HIV-1 Env of NIH-003_SC422661.8 (HIV-1)
[2] = target: envelope protein of control pseudovirus NAC_VSV
[3] = target: HIV-1 Env of NIH-050_CNE21 (HIV-1)
[4] = target: HIV-1 Env of pseudovirus NIH-103_0815.v3.c3 (HIV-1)
[5] = target: HIV-1 Env of pseudovirus NIH-024_ZM53M.PB12 (HIV-1)
[6] = target: HIV-1 Env of pseudovirus NAC_MN (HIV-1) (UniProt P05877)
[7] = target: HIV-1 Env of pseudovirus NIH-053_CNE52 (HIV-1)
[8] = target: HIV-1 Env of isolate NIH-082_X1193 c1 (HIV-1)
[9] = target: HIV-1 Env of pseudovirus NIH-065_191955 A11 (HIV-1)
[10] = target: HIV-1 Env of NIH-108_T235.47 (HIV-1)
[11] = target: HIV-1 Env of pseudovirus NIH-047_Ce704809221 1B3 (HIV-1)
[12] = target: HIV-1 Env of pseudovirus NAC_ADA (HIV-1)
[13] = target: HIV-1 Env of NIH-096_6952.v1.c20 (HIV-1)
[14] = target: HIV-1 Env of pseudovirus NIH-019_Du422.1 (HIV-1)
[15] = target: HIV-1 Env of NIH-002_QHO692 .42 (HIV-1)
[16] = target: HIV-1 Env of pseudovirus NIH-057_MS208.A1 (HIV-1)
[17] = target: HIV-1 Env of NIH-117_T278.5 (HIV-1)
[18] = target: HIV-1 Env of NIH-043_ZM249M.B10 (HIV-1)
[19] = target: HIV-1 Env of NIH-056_Q168ENVa2 (HIV-1)
[20] = target: HIV-1 Env of isolate NIH-084_X1254 c3 (HIV-1)
[21] = target: HIV-1 Env of pseudovirus NIH-025_ZM109F.PB4 (HIV-1)
[22] = target: HIV-1 Env of pseudovirus NAC_SF162 (HIV-1)
[23] = target: HIV-1 Env of NAC_RHPA4.7 (HIV-1)
[24] = target: HIV-1 Env of pseudovirus NIH-086_X2131 C1 B5 (clade G) (HIV-1)
[25] = target: HIV-1 Env of NAC_IAVIC22 (HIV-1)
[26] = target: HIV-1 Env of NIH-104_3103.v3.c10 (HIV-1)
[27] = target: HIV-1 Env of pseudovirus NAC_BaL.26 (HIV-1)
[28] = target: HIV-1 Env of isolate NIH-088_X1632 S2 B10 (HIV-1)
[29] = target: HIV-1 Env of pseudovirus NIH-116_T263.8 (HIV-1)
[30] = target: HIV-1 Env of pseudovirus NIH-012_1012.11.TC21.3257 (HIV-1)
[31] = target: HIV-1 Env of NIH-024_ZM53M.PB12 (HIV-1)
[32] = target: HIV-1 Env of pseudovirus NIH-050_CNE21 (HIV-1)
[33] = target: HIV-1 Env of pseudovirus NAC_93IN905 (HIV-1)
[34] = target: HIV-1 Env of NIH-055_CNE58 (HIV-1)
[35] = target: HIV-1 Env of pseudovirus NIH-027_CAP45.G3 (HIV-1)
[36] = target: HIV-1 Env of NIH-095_6480.v4.c25 (HIV-1)
[37] = target: HIV-1 Env of pseudovirus NIH-045_7030102001E5(Rev.) (HIV-1)
[38] = target: HIV-1 Env of NIH-013_6240.08.TA5.4622 (HIV-1)
[39] = target: HIV-1 Env of pseudovirus NAC_DH12 (HIV-1)
[40] = target: HIV-1 Env of NAC_JRCSF (HIV-1) (UniProt P20871)
[41] = target: HIV-1 Env of NIH-038_Ce1172 H1 (HIV-1)
[42] = target: HIV-1 Env of pseudovirus NIH-060_Q769ENVd22 (HIV-1)
[43] = target: HIV-1 Env of NIH-017_Du156.12 (HIV-1)
[44] = target: HIV-1 Env of pseudovirus NIH-088_X1632 S2 B10 (clade G) (HIV-1)
[45] = target: HIV-1 Env of NIH-001_6535.3 (HIV-1)
[46] = target: HIV-1 Env of NIH-065_191955 A11 (HIV-1)

PGZL1 (antibody)
IC80 neutralization [1]: > 50 µg/mL | IC50 (µg/ml), TZM-bl cell neutralization assay, control pseudovirus [2]: > 50 µg/mL | IC80 (µg/ml), TZM-bl pseudovirus neutralization [2]: > 50 µg/mL | IC80 neutralization [3]: 17.8 µg/mL | neutralization IC50 [4]: 18.7 µg/mL | neutralization IC50 [5]: > 50 µg/mL | neutralization IC50 [6]: 0.023 µg/mL | neutralization IC50 [7]: 24.3 µg/mL | IC80 (µg/ml), TZM-bl pseudovirus neutralization [8]: 21.3 µg/mL | neutralization IC50 [9]: 1.89 µg/mL | IC80 neutralization [10]: 6.62 µg/mL | neutralization IC50 [11]: 0.738 µg/mL | neutralization IC50 [12]: 5.36 µg/mL | IC80 neutralization [13]: 4.7 µg/mL | neutralization IC50 [14]: 7.51 µg/mL | IC80 neutralization [15]: > 50 µg/mL | neutralization IC50 [16]: 10.1 µg/mL | IC80 neutralization [17]: > 50 µg/mL | IC80 neutralization [18]: 25.6 µg/mL | IC80 neutralization [19]: > 50 µg/mL | IC80 (µg/ml), TZM-bl pseudovirus neutralization [20]: > 50 µg/mL | neutralization IC50 [21]: 7.36 µg/mL | neutralization IC50 [22]: 12.8 µg/mL | IC80 neutralization [23]: > 50 µg/mL | IC50 (µg/ml), TZM-bl cell neutralization assay, pseudovirus [24]: 0.885 µg/mL | IC80 neutralization [25]: > 50 µg/mL | IC80 neutralization [26]: > 50 µg/mL | neutralization IC50 [27]: > 50 µg/mL | IC80 (µg/ml), TZM-bl pseudovirus neutralization [28]: > 50 µg/mL | neutralization IC50 [29]: 2.02 µg/mL | neutralization IC50 [30]: 13.3 µg/mL | IC80 neutralization [31]: > 50 µg/mL | neutralization IC50 [32]: 4.23 µg/mL | neutralization IC50 [33]: 0.404 µg/mL | IC80 neutralization [34]: 14.5 µg/mL | neutralization IC50 [35]: 18.3 µg/mL | IC80 neutralization [36]: > 50 µg/mL | neutralization IC50 [37]: 49.6 µg/mL | IC80 neutralization [38]: > 50 µg/mL | neutralization IC50 [39]: 4.71 µg/mL | IC80 neutralization [40]: > 50 µg/mL | IC80 neutralization [41]: 6.6 µg/mL | neutralization IC50 [42]: 20.2 µg/mL | IC80 neutralization [43]: 2.5 µg/mL | IC50 (µg/ml), TZM-bl cell neutralization assay, pseudovirus [44]: 15.5 µg/mL | IC80 neutralization [45]: 4.69 µg/mL | IC80 neutralization [46]: 8.56 µg/mL

4E10 (antibody)
IC80 neutralization [1]: 11.1 µg/mL | IC50 (µg/ml), TZM-bl cell neutralization assay, control pseudovirus [2]: > 50 µg/mL | IC80 (µg/ml), TZM-bl pseudovirus neutralization [2]: > 50 µg/mL | IC80 neutralization [3]: 2.15 µg/mL | neutralization IC50 [4]: 1.2 µg/mL | neutralization IC50 [5]: 10.4 µg/mL | neutralization IC50 [6]: 0.005 µg/mL | neutralization IC50 [7]: 0.954 µg/mL | IC80 (µg/ml), TZM-bl pseudovirus neutralization [8]: 1.43 µg/mL | neutralization IC50 [9]: 0.011 µg/mL | IC80 neutralization [10]: 1.07 µg/mL | neutralization IC50 [11]: 0.134 µg/mL | neutralization IC50 [12]: 0.836 µg/mL | IC80 neutralization [13]: 3.5 µg/mL | neutralization IC50 [14]: 1.42 µg/mL | IC80 neutralization [15]: 25 µg/mL | neutralization IC50 [16]: 0.678 µg/mL | IC80 neutralization [17]: 6.03 µg/mL | IC80 neutralization [18]: 4.55 µg/mL | IC80 neutralization [19]: 15.1 µg/mL | IC80 (µg/ml), TZM-bl pseudovirus neutralization [20]: 11.8 µg/mL | neutralization IC50 [21]: 0.703 µg/mL | neutralization IC50 [22]: 1.97 µg/mL | IC80 neutralization [23]: 19.3 µg/mL | IC50 (µg/ml), TZM-bl cell neutralization assay, pseudovirus [24]: 0.194 µg/mL | IC80 neutralization [25]: 6.11 µg/mL | IC80 neutralization [26]: 32.4 µg/mL | neutralization IC50 [27]: 4.2 µg/mL | IC80 (µg/ml), TZM-bl pseudovirus neutralization [28]: 10.4 µg/mL | neutralization IC50 [29]: 0.206 µg/mL | neutralization IC50 [30]: 2.06 µg/mL | IC80 neutralization [31]: 42.6 µg/mL | neutralization IC50 [32]: 0.513 µg/mL | neutralization IC50 [33]: 0.11 µg/mL | IC80 neutralization [34]: 2.24 µg/mL | neutralization IC50 [35]: 0.886 µg/mL | IC80 neutralization [36]: 3.04 µg/mL | neutralization IC50 [37]: 3.41 µg/mL | IC80 neutralization [38]: 40.3 µg/mL | neutralization IC50 [39]: 1.17 µg/mL | IC80 neutralization [40]: 3.92 µg/mL | IC80 neutralization [41]: 4.56 µg/mL | neutralization IC50 [42]: 1.61 µg/mL | IC80 neutralization [43]: 0.447 µg/mL | IC50 (µg/ml), TZM-bl cell neutralization assay, pseudovirus [44]: 2.57 µg/mL | IC80 neutralization [45]: 3.29 µg/mL | IC80 neutralization [46]: 0.157 µg/mL

VRC01 (antibody)
IC80 neutralization [1]: 0.481 µg/mL | IC50 (µg/ml), TZM-bl cell neutralization assay, control pseudovirus [2]: > 50 µg/mL | IC80 (µg/ml), TZM-bl pseudovirus neutralization [2]: > 50 µg/mL | IC80 neutralization [3]: 0.848 µg/mL | neutralization IC50 [4]: 0.019 µg/mL | neutralization IC50 [5]: 0.917 µg/mL | neutralization IC50 [6]: 0.01 µg/mL | neutralization IC50 [7]: 0.142 µg/mL | IC80 (µg/ml), TZM-bl pseudovirus neutralization [8]: 0.408 µg/mL | neutralization IC50 [9]: 0.091 µg/mL | IC80 neutralization [10]: 0.084 µg/mL | neutralization IC50 [11]: 0.32 µg/mL | neutralization IC50 [12]: 0.314 µg/mL | IC80 neutralization [13]: 0.097 µg/mL | neutralization IC50 [14]: > 50 µg/mL | IC80 neutralization [15]: 7.93 µg/mL | neutralization IC50 [16]: 0.063 µg/mL | IC80 neutralization [17]: > 50 µg/mL | IC80 neutralization [18]: 0.275 µg/mL | IC80 neutralization [19]: 0.218 µg/mL | IC80 (µg/ml), TZM-bl pseudovirus neutralization [20]: 0.149 µg/mL | neutralization IC50 [21]: 0.074 µg/mL | neutralization IC50 [22]: 0.262 µg/mL | IC80 neutralization [23]: 0.137 µg/mL | IC50 (µg/ml), TZM-bl cell neutralization assay, pseudovirus [24]: 0.073 µg/mL | IC80 neutralization [25]: 1.37 µg/mL | IC80 neutralization [26]: 6.21 µg/mL | neutralization IC50 [27]: 0.01 µg/mL | IC80 (µg/ml), TZM-bl pseudovirus neutralization [28]: 1.35 µg/mL | neutralization IC50 [29]: 0.124 µg/mL | neutralization IC50 [30]: 0.081 µg/mL | IC80 neutralization [31]: 3.63 µg/mL | neutralization IC50 [32]: 0.212 µg/mL | neutralization IC50 [33]: 0.07 µg/mL | IC80 neutralization [34]: 0.331 µg/mL | neutralization IC50 [35]: 1.92 µg/mL | IC80 neutralization [36]: 0.054 µg/mL | neutralization IC50 [37]: 0.38 µg/mL | IC80 neutralization [38]: 2.62 µg/mL | neutralization IC50 [39]: 0.227 µg/mL | IC80 neutralization [40]: 0.69 µg/mL | IC80 neutralization [41]: > 50 µg/mL | neutralization IC50 [42]: 0.025 µg/mL | IC80 neutralization [43]: 0.23 µg/mL | IC50 (µg/ml), TZM-bl cell neutralization assay, pseudovirus [44]: 0.338 µg/mL | IC80 neutralization [45]: 3.7 µg/mL | IC80 neutralization [46]: 0.467 µg/mL
